Assay results taken from the nanobody polyreactivity screen of Harvey et al. (2022).

Assay: yeast display, Sf9 membrane polyspecificity reagent, FACS + sequencing; frameworks hold sequencing errors
Outline: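 After 36–48 hours of galactose induction, yeast (Saccharomyces cerevisiae BJ5465) displaying a synthetic nanobody library were stained at 4 °C for 1 hour with 10% biotinylated, detergent-solubilized Sf9 membrane reagent. Streptavidin microbeads enriched the stained cells before FACS sorting into low and high (top ~1%) gates on anti-HA and streptavidin fluorescence. Each clone's polyreactivity label reflects its gate of origin.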

| Sequence | polyreactivity (PSR sort gate) |
| --- | --- |
| QVQLVESGGGLVQAGGSLRLSCAASGITFNYYVKGWYRQAPGKERELVAAIRRGGSTNYADSVKGRFTISRDNAKNTVYLQMNSLKPEDTAVYYCASRTYRGLAYDYWGQGTQVTVSS | high polyreactivity |
| QVQLVESGGGLVQAGGSLRLSCAASGITFPDYAMGWYRQAPGKERELVASISDSGGNTYYADSVKGRFTISRDNAKNTVYLQMNSLKPEDTAVYYCAVDSWYYYIVLYDYWGQGTQVTVSS | high polyreactivity |
| QVQLVESGGGLVQAGGSLRLSCAASGITFPGYAMGSYRQAPGKERELVAVIRKSGTSTYYADSVKGRFTISRDNAKNTVYLQMNSLKPEDTAVYYCAAGGPSTLDDYWGQGTQVTVSS | low polyreactivity |
| QVQLVESGGGLVQAGGSLRLSCAASGITFPGYAMGWYRQAPGKERELVAAIDWSGDGTYYADSVKGRFTISRDNAKNTVYLQMNSLKPEDTAVYYCAKDNYPNHSTVLAVIYDYWGQGTQVTVSS | low polyreactivity |
| QVQLVESGGGLVQAGGSLRLSCAASGITFPHYAMGWYRQAPGKERELVAAISSSGGRTYYADSVKGRFTISRDNAKNTVYFQMNSLKPEDTAVYYCNKLRYPLLPPKYYYWGQGTQVTVSS | high polyreactivity |
| QVQLVESGGGLVQAGGSLRLSCAASGITFPKYAMGWYRQAPGKERELVAAITKSGGSTYYADSVKGRFTISRDNAKNTVYLQMNSLKPEDTAVYYCAVVSRGITKYDYWGQGTQVTVSS | high polyreactivity |
| QVQLVESGGGLVQAGGSLRLSCAASGITFPLYVMGWYRQAPGKERELVAAISASGGSTYADSVKGRFTISRDNAKNTVYLQMNSLKPEDTAVYYCNADVYVGYEYVYWGQGTQVTVSS | low polyreactivity |
| QVQLVESGGGLVQAGGSLRLSCAASGITFPRNAMGWYRQAPGKERELVAAISARGGNTYYADSVKGRFTISRDNSKNTGYLQMIRLKPEDTAVYDCNALGSSFSEPSEYDYWGQGTQVTVSS | low polyreactivity |
| QVQLVESGGGLVQAGGSLRLSCAASGITFPRNAMGWYRQAPGKERELVAAISARGGNTYYADSVKGRFTISRDNSKNTVYLQMNSLKPEDTAVYYCNALGSSYSEPSEYDYWGQGTQVTVSS | low polyreactivity |
| QVQLVESGGGLVQAGGSLRLSCAASGITFPRYTMGWYRPAPGKERELVAAISSGGSTYYADSVKGRFTISRDNAKNTVYLQMNSLKPEDTAVYYCNAVVPYWYYIYDYWGQGTQVTVSS | high polyreactivity |
| QVQLVESGGGLVQAGGSLRLSCAASGITFPSYVMGWYRQAPGKEREFVAAITGSAGSTYYADSVKGRFTISRDNAKNTVYLQMNSLKPEDTAVYYCAARVRYVNPKYYYWGQGTQVTVSS | high polyreactivity |
| QVQLVESGGGLVQAGGSLRLSCAASGITFPVYAMGWYRQAPGKEREFVASIRFSTGRTYYADSVKARFTISRDYAKNTVYLQMNSLKPEDTAVYYCRGTTQSPYNSWGQGTQVTVSS | high polyreactivity |
| QVQLVESGGGLVQAGGSLRLSCAASGITFPYNAMGWYRQAPGKERELVADISSSGGITYYADSVKGRFTISRDNAKNTVYLQMNSLKPEDTAVYYCAVRKYGYGFEMDYWGQGTQVTVSS | low polyreactivity |
| QVQLVESGGGLVQAGGSLRLSCAASGITFQRYAMGWYRQAPGKERELVAAITRRGGSTYYADSVKGRFTISRDNAKNTVYLQMNILKPEDTAVYYCAADLFFKARGYDYWGQGTQVTVSS | high polyreactivity |
| QVQLVESGGGLVQAGGSLRLSCAASGITFQWYAMGWYRQAPGKERELVAAITYRGGSTYYADSVKGRFTISRDNAKNTVYLQMNSLKPEDTAVYYCARDHSRHLHPSWLDYWGQGTQVTVSS | high polyreactivity |
| QVQLVESGGGLVQAGGSLRLSCAASGITFQYYAMGWYRQAPGKERELVASISYRGGRTYYADSVKGRFTISRDNAKNTVYLQMNSLKQEDTSVYYCAADWRYTTFWTLRYYGFDYWGQGTQVTVSS | high polyreactivity |
| QVQLVESGGGLVQAGGSLRLSCAASGITFRAYALGWYRQAPGKEREFVAAISWRGGSTYYADSVKGRFTISRDNAKNTVYLQMNSLKPEDTAVYYCAVGSYDHDYWYEYWGQGTQVTVSS | high polyreactivity |
| QVQLVESGGGLVQAGGSLRLSCAASGITFRFNARVWYRQEPGKEREFVAAITYSGDSTYYADSVKGRFTISRDNAKNTVYLQMNSLKPEDTAVYYCAADYYAISRRIFYYWGQGTQVTVSS | low polyreactivity |
| QVQLVESGGGLVQAGGSLRLSCAASGITFRFYALGWYRKAPGKEREFVAAISSRGGRTYYADSVKGRFTISRDHAKNTVYLQMNSLKPEDTAVYYCAADFYYRTVATVTSVARYDYWGQGTQVTVLS | high polyreactivity |
| QVQLVESGGGLVQAGGSLRLSCAASGITFRFYAMGWYRQAPGKERELVAAISWSGGSTNYADSVKGRFTISRDNAKNTVYLQLNSLKPEDTAVYYCAADQYYYRYIRTSKYDYWGQGTQVTVSS | high polyreactivity |
| QVQLVESGGGLVQAGGSLRLSCAASGITFRFYAMGWYRQPPGKERELVAAITSGGGTYYADSVKGRFTISRDNAKNTVYLQMNSLKPEDTAVYYCAAYQYNRKRHNYWGLGTQVTVSS | high polyreactivity |
| QVQLVESGGGLVQAGGSLRLSCAASGITFRGYAMGWYRKAPGKERELVASITNTDSTYYADSVKGRFTISRDNAKNTVYLQMNSLKPEDTAVYYCAARRGRKYGYWGQGTQVTVSS | high polyreactivity |

| Sequence | polyreactivity (PSR sort gate) |
| --- | --- |
| QVQLVESGGGLVQAGGSLRLSCAASGITFRGYAMGWYRQAPGKERELVAAITWSGGSTYYADSVKGRFTISRDNAKNTVYLQMNSLKPEDTAVYYCAAYSLHNYLSEYGYWGQGTQVTVSS | high polyreactivity |
| QVQLVESGGGLVQAGGSLRLSCAASGITFRGYAMGWYRQAPGKERELVATISSGGSTNYADSVKGRFTISRDNAKNTVDLQRISLKPEDTAVYYCNAVYRRGYGYWGQGTQVTVSS | high polyreactivity |
| QVQLVESGGGLVQAGGSLRLSCAASGITFRKYAMGWSRQAPGKERELVAAISAGGGRTFYADSVKGRFTISRDNAKNTVYLQMNSLKPEDTAVYYCNADLGIGYDYWGQGTQVTVSS | high polyreactivity |
| QVQLVESGGGLVQAGGSLRLSCAASGITFRPYPMGWYRQAPGKERELVATINWSGGSTYYADSVKGRFTISRDNAKKTVYLQMNSLKPEDTAVSYCAVTWYVRRWYGYWGQGTQVTVSS | high polyreactivity |
| QVQLVESGGGLVQAGGSLRLSCAASGITFRRYAMGWYRKAPGTERELVATITRGDNTYYADSVKGRFTISRDNAKNTVYLQMNSLKPEDTAVYYCAKGWPTDDYDYWGQGTQVTVSS | high polyreactivity |
| QVQLVESGGGLVQAGGSLRLSCAASGITFRVNAMGWYRQAPGKERELVAAISQIGGSTYYADSVKGRFTISRDNAKNTVYLQMNSLKPEDTAVYYCAARRRWYNYNYWGQGTQVTVSS | high polyreactivity |
| QVQLVESGGGLVQAGGSLRLSCAASGITFRWNAMGWYRPAPGKERELVAAITTRGGGTYYADSVKGRFTISRDNAKNTVYLQMNSMKPEDTAVYYCAAKKSRYPYNYWGQGTQVTVSS | high polyreactivity |
| QVQLVESGGGLVQAGGSLRLSCAASGITFRYYAMGWYRPAPGKERELVAALTSGGSTNYADSVKGRFTISRDNAKNTVYLQMNSLIPEDTAVYYCAATSYYRTNYGLVFLYRRNYWGQGTQVTVSS | high polyreactivity |
| QVQLVESGGGLVQAGGSLRLSCAASGITFRYYAMGWYSQAPGKERELVAAITRGGRTNYADSVKGRYTISRDNAKNTVYLQMNSLKPEDTAVYYCAAGRVGRLSEYNYWGQGTQVTVSS | high polyreactivity |
| QVQLVESGGGLVQAGGSLRLSCAASGITFRYYVMGWYRQAPGKERELVAAISWSGGSTYYADSVKGRFTISRDNAKNTVYLQMNCLKPEDTAVYYCAAYKRRSNGRYWTYDYWGQGTQVTVSS | high polyreactivity |
| QVQLVESGGGLVQAGGSLRLSCAASGITFSEYAMGWYRQAPGKERELVAAITSGGNTYYADSVKGRFTISRDNAKNTVYLQMNSLKPEDTAVYYCAATFSSAFAYYYWGQGTQVTVSS | low polyreactivity |
| QVQLVESGGGLVQAGGSLRLSCAASGITFSFYAMGWYRQAPGKERELVATIDSGGSTNYADSVKGRFTISRDNAKNTVYLQMNSLKPEDTAVYYCAADGVWYYYDMDYWGQGTQVTVSS | low polyreactivity |
| QVQLVESGGGLVQAGGSLRLSCAASGITFSGYGMGWYRQAPGKERELVAAISRSGGSTYYADSVKGRFTISRDNAKNTVYLQMNSLKPEDTAVYYCATASRTSRTGWAGYYWGQGTQVTVSS | high polyreactivity |
| QVQLVESGGGLVQAGGSLRLSCAASGITFSHNAMGWYRQAPGKERELVAAITRSGGSTYYADSVKGRFTISRDNAKNTVYLQMNCLKPEDTAVYYCATEDYYRQYGYWSLSRMDHWGQGTQVTVSS | low polyreactivity |
| QVQLVESGGGLVQAGGSLRLSCAASGITFSHNAMGWYRQAPGKERELVAAITRSGRSTYYADSVKGRFTISRDNAKNTVYLQMNSLKPEDTAVYYCSTDNHQRRAGSGYWGQGTQVTVSS | low polyreactivity |
| QVQLVESGGGLVQAGGSLRLSCAASGITFSKYAMGWYRQAPGKERELVAAITTSGVSTYYADSVKGRFTISRDNAKNTVYLQMNSLKPEDTAVYYCATELGWGGFYKYGHASQFDYWGQGTQVTVSS | low polyreactivity |
| QVQLVESGGGLVQAGGSLRLSCAASGITFSPYTMGWYRQAPGKERELVAAINSGGRTNYADSVKGRFTISRDNAKNTVYLQMNSLKPEDTAVYYCTKRGHPARLGYYYWGQGTQVTVSS | low polyreactivity |
| QVQLVESGGGLVQAGGSLRLSCAASGITFSPYTRGWYRQATGKERELVAAINDGAITYYADSVKGRFTISRDNAKNTVYLQMNSQKPEDTAVYYCAAAAWGTDPFSTDYASYDYWGQVTQVTVSS | low polyreactivity |
| QVQLVESGGGLVQAGGSLRLSCAASGITFSQYAMGWYRPAPGKERELVAAISWSGVRTYYADSVKGRFTISRDNSKNTVYLQMNSLKPEDTAVYYCAAVPVYYGYDYWGQGTQVTVSS | high polyreactivity |
| QVQLVESGGGLVQAGGSLRLSCAASGITFSRNAMGWSRQARGKERELVAAISRGGSTNYADSVKGRFTISRDNAKNTVYLQMNSLKPEDTAVYYCNAPGYLSWRFYGVKRNYWGQGTQVTVSS | high polyreactivity |
| QVQLVESGGGLVQAGGSLRLSCAASGITFSRNAMGWYRQAPGKERELVATITSGGSTNYADSVKGRFTISRDNAKNTVYLQMNSLKPEDTAVYYCAVDYDSYWYGTYVNEYDYWGQGTQVTVSS | low polyreactivity |
